Assay: label from the status in PepcDB records

MPPMPVPIRILSVLLLVAMSASATAAPKKAPPASPPSSAGASSLEPVLAGEFALQAGQLDDAARAYLDAAKAEAGDAGLAERAARISMLANDDPRAIEALALWRARAPSSMSMRSTEASLALRRNDLRTARRDLLGLLKEPDPRGWRFALIALANGGREPEASADVLEDLVKAGAIPNQIEAWQEFGRLALRMERPALAKRIVDEVVRRFPEEPRVALLHATQLQQEGKNDEALALLKNIEPQAVKDSELRGALAFAYDAMGQTEAAARVLSTGPQDTQTYGLRASMLAKEKDRSSLEALYAELKSNATKPDPDRRLLLGKIAEFLKRYDEAVEWYRGVPGGPQLSEARLRAASALYELGRKPEALAEARALQGDASADDDARRDAYVLEAELHQRADDAPGELDAFERGLAAYPDDSALLYARGLAWERRDDVPRAEADLRKILVTEPENVAALNALGYTLADRTTRYKEALALIDRARTADPDNPAIVDSYGWVLYRMGRTKEALVQLRRAWALVKDPEIAAHVGEVLWVSGKQDEARRYFDEARRLDPDNRALQRAVEKFGL
protein production: failed

MGHHHHHHSHMGWDLTVKMLAGNEFQVSLSSSMSVSELKAQITQKIGVHAFQQRLAVHPSGVALQDRVPLASQGLGPGSTVLLVVDKSDEPLS
protein production: failed

MEPGLDGGYLLLGVDWAINDKGDTVYRPVGLPDPDKVQRDLASQCASMLNVALRPEMQLEQVGGKTLLVVYVPEADVTHKPIYKKATGLPGGAYRRIGSSDQRCVLEHHHHHH
protein production: failed

MTTIYLVRHGQASFGKANYDELSENGQAQATILGQYLKEILKEQPYVIAGTMKRHLQTAQGALKECFPDTHIYTHAGWNEFNHQQVFANYEPRFKQPELLKQDVAKEQNPRAYLAKIFESAISRWTDGEFHHEYEESWPKFKQRVEIALKMLCDELAQTKPRYAVVFTSGGVISVIAGKILELNPNRTFALNWAITNTSLTTLRLVGNEPQLLSLNEHHFIKVVNPALLTWI
protein production: failed

MKYLLLPVVVLLAGCQSLSQSDGNAITDNSDSQVETAHPVEINQALLADESIDVIHPVADVDFSLNNTLKDQKAIDENNIWPRIRSQLTFDIPNQKRLVSQRNWYVKHPSYLKRVAKRAEPFLYYIVQELEKNDMPIELAFLPIVESAFDPFAYSHGRASGMWQFVPGTGERFGMKQNWWYDGRRDVVASTEGAIKYLKYLHKFFDGDWMLALAAYNSGEGRVRNAVRKNKRLGKPTDFWSLDLPKETRAYVPKLLALADIVKRPEDFNLSLYSIDNKSVLSQVDIKSQLDLAKAATLAGLSLAELQRLNPGFNRWATDPDGPHRLLLPSHTVEKFELGLSKLSKKDRLAWQRYKIKSGDNLGLIANKFNTRVDLIQQVNNIKGNQIRAGKHLLIPVAAKSLDSYVFSQEQRIAKKQNRPQKGRKLVHTVKSGDNLWDIGRKYKVNSKSIAKWNGFAPRDTLKLGQKLVIWQKSDTKSNKSNFANSKTGNNVENAIMRNITYKVRRGDSFARIADKFNVRISDIERWNNLDRKKYLQPGQRLKLSVDVTNNI
protein production: failed

MTAPAICNTTETVHGIATSLGAVARQASLPRIVGTVVGITVLVVVALLVPVPTAVELRDWAKSLGAWFPLAFLLVHTVVTVPPFPRTAFTLAAGLLFGSVVGVFIAVVGSTASAVIAMLLVRATGWQLNSLVRRRAINRLDERLRERGWLAILSLRLIPVVPFAAINYAAGASGVRILSFAWATLAGLLPGTAAVVILGDAFAGSGSPLLILVSVCTGALGLTGLVYEIRNYRRQHRRMPGYDDPVREPALI
protein production: failed

MNTRHFSQLPKPYLAYPKVIQGLVFKKPKGSKILPQVEYVVDSFQIDQQHLRDYNEVCGFQNDGFIPAIYLAVLSQSLQMHMMTTEAFPFPVLGLVHIRNQIKQIRKIAVNETLTLSCQFGELKPHDKGLQFDFITTAKVGNDIVMEGITTYLSRQKTEQVSAEKPKENKTPDYQVQQVWDVAENTGRRYAKTSGDYNLIHIHAITAKAFGFKQAIAHGMWSKAKALANIVLPDAYEADVWFKLPMYLPSKVEFLTAEQSKETDFLIRNAKSQKPHVSGVVKAL
protein production: failed

MLLYIHGFNSSPFSDKAVITARYMAEYHPSLTFHQPQLPNTPKAAMALLQSYVEAAQQANEPLNYIGSSLGGYFASYLAERYGGRAVLVNPAVKPFELFDEFMGPQFNPYTQEHYQVLPEHKREVAEFNTPVIRNPERFLVLLQTGDEVLDYREALHKYHHCQLRIESGGDHSFVGYERYLQTVSQFLH
protein production: failed

MTKYKVALFDLDNTLLKTEDASVAALTYALNQDGVEVTPQAIVELMGLPGIDMARELGSSNPAKTIDIFNERINQEVDLIKEYDGIDEMFAGLRELGIEYGIVTSKLRRVFDDEMRSFPKIRAIEKVVLSDDTKKHKPHADPIEFGMQKYFPKLNRADVIYVGDSLFDMQSAHAAGVDFANAGWGAIPANDFSEAEYILKTPTDLLEIV
protein production: failed

MAHVRLFRHYIHLPFVILGLIDLIVMGLAFALAVFFRFFGELEFFLDNLVFVLPSITIFALFNLIVMIALGVHQSRVEEGMSGMMLRTIMAMILAIPLHGFAYFVADDWLWYLGSFGLLTSATVLGIFSLGIARVVFFAVVGKDRFKRRVLVLGAGRRAKQMFEDLTTPFNRKGFSLDGFVPMPDDTVEVDEQYLINLPTSLHDYVLRHPVREIVVAVDDRRRGLPMEDLLECKMEGVHIIDGANFYERESRKVALEMITRGWLVFSDGFTVSSVYGVGKRALDVLASGTLLLATFPIMILTAIAIKLEDGLKAPVIYSQERVGLNNQVFKVHKFRSMITDAEKNGAVWARKNDTRVTRVGEFIRKVRIDELPQIFNVLNGTMAFVGPRPERPVFVEQLSEKIPFYAERHRVKPGLTGWAQLCFAYADNEEDTREKLRYDLYYIKNQSLLLDLLIIIQTVEVVLFKKGSR
protein production: failed

MVKAYQRYDAATSFGVISSVDSNIAYDSTGKYVLAPALEKVGIWHVRQGVCSKTLTPSSSRGGPSLAVTSIASSASSLVAVGYADGSIRIWDTEKGTCEVNFNSHKGAVTALRYNKVGSMLASGSKDNDIILWDVVGESGLFRLRGHRDQVTDLVFLDGGKKLVSSSKDKFLRVWDLETQHCMQIVSGHHSEVWSVDTDPEERYVVTGSADQELRFYAVKEYSSNGSLVSDSNANEIKASEEHSTENKWEILKLFGEIQRQTKDRVARVRFNVSGKLLACQMAGKTIEIFRVLDEAEAKQKAKRRLRRKEKKSSKVGDENSTANGEASAKIELADAVSSPTVLDVFKLLQVIRAGRKISSFSFCPTAPKESLGTLALSLNNNSLEFYSLKSSENAKTVTIEHQGHRSDVRSVTLSEDNTLLMSTSHSEVKIWNPSTGSCLRTIDSGYGLCSLIVPQNKYGIVGTKSGVLEIIDIGSATKVEEVKAHGGTIWSITPIPNDSGFVTVSADHEVKFWEYQVKQKSGKATKKLTVSNVKSMKMNDDVLAVAISPDAKHIAVALLDSTVKVFYMDSLKFYLSLYGHKLPVMCIDISSDGELIVTGSQDKNLKIWGLDFGDCHKSIFAHGDSVMGVKFVRNTHYLFSIGKDRLVKYWDADKFEHLLTLEGHHAEIWCLAISNRGDFLVTGSHDRSMRRWDRSEEPFFLEEEKEKRLEELFESEIDNAADDRHGPMEEIPEEGVAALAGKKTIDVLSAADSIIDALEVAEDETKRHAAYEEEKTKGKVPEYLPNAVMFGLSPSEYVLRAISNVRTNDLEQTLLALPFSDSLKFLCYMKDWSLIPEKVELVSRIATIILQTHHNQLVTTPSARPILSVLRDILYSEIKACKDTIGFNLAAMDHVKQMMDARSDAPFKDAKAKLLEIRSQQAKRMASRGDTKMEKKRKKKQKKLEEGQHGHALF
protein production: failed

MPATPSLKVVHELPACTLCAGPLEDAVTVPCGHTFCRLCLPALSQMGAQSSGKILLCPLCQEEEQAETPMAPVPLGPLGETYCEEHGEKIYFFCENDAEFLCTSECRTTDGFGCA
protein production: failed

SISTHESQKLREYYRLLNLDEGCSVDDVRESFHKLARQYHPDSGSSDADSATFIKIEEAYRNVLSHAIKRMHAGQDKAEDAAEDEEEGKFKYNTPQHRHYLSFEGVGFGTPSQREKQYRQFRADRATEQVMEYQRQKLQREFFANSITVKDVRQSKQQKITQAIERLVEDLIQESMAKGDFDNLSGKGKPLKKFSGCSYIDPMTHNLNRILIDNGYQPEWILMQKEIKDTIEQLREALLMSRKKLGNPLSPTEQKQWAQVCEQFQEKIRKLNKRINDFNLIVPILTRQKVHFDAQKEIIRVQEMYGAFVEANEVTEENQTDVSQGEESKTPRVKAGFLNWLNLWKSIKI
protein production: failed

MEELQYFPYEKFRPNQREFIEIVKEAVKRGENLIVEAPTGFGKTISVLAGVLPYAISLGYKVVYLARTHKQMDRVIEELRKIGEKSEVSGIEFRSRKDLCLHAYIQTFAQDAYTSMIVCKSLRKLGKCKYYENLKEKRDRVDEIVKFFLSFPPFPREVIEYSELLELCPYEITKKVGEKANVVVASYLYMISPPIRQAFLENLGVDYSDLIVIFDEAHNLPDQAISALSDRLSVRSIERAIKEAEEYGEKDIENFLSILLRGLEILYKEKLENYESEEIPIRPEEVFLHPASILGWRGRDIGMMLEDMIEVGDAIREDRIERNLPPRSYVGRVGEFLWNWLSLRDREDYLHLFTKEKGLALELVALDPSVALDFLEEVHSAIFMSGTLSPLEAFRDIIGVNARLKKFPRIVKRENAIVLVARDVSTRGIERSPPLYKRIAEYIFEAVKNTPKNVGVFTASYEVLEGVLSTNVHIKIEEEVGKKVFIEKKDAPSRENDEMIREFKEESKGKGAVLFGVMGGRNSEGQDYSGDEMNGVILVGIPYARPTPRVQAQTRYFEKKFPGKGRYYGYILPAHRKLAQAAGRVHRSENEKGSIVILDYRVLWKNVKKDLPDWMVETMIPVTLPTLRIKLRRFWRERLNE
protein production: failed

MLDTVRQELNNFRSPLYRNSIYISLTSLVTAVAGFLFWSVAARLYPSSQVGVASALVSAINLTFTVSMLGLNFALIRFYPQYKERAVGSSLVLAVTASFFVSLVYGLIMGGSESFRGVFSAEFLAIFVTFSMVGTAYNILSTYAIAKRKAEHSFMQGLLFALRFVFLFFLVPLGVFGIVGSFGFGLTLGLIYGLIFIDDIKLSLDVEYLKESFRFSLGNYIASMANVAPNYLMPTLVLTMLGKEEAAYFYIAFAIGNLILFIPNAINTSFFVEGSHGLKDMKRTLKKALAFSYLYLAVATVFVWLFGGYVLELFRPEYVKGFGLLKLMVLGGFFVVPVNFSITILNIQKRVREVVGINLLKAALFLGLSYLLIPRFGIEGVGWGWIGAYSISVFMLFVRFFRKVF
protein production: failed

MRHYETMFILKPTLVEEEIKSKIEFYKEVITKHHGVIETSLDMGMRNLAYEIKKHKRGYYYVAYFKAEPSMIVELERLYRINEDVLRFIVIKYESKKEVEAWHALVDRANKKPSHAKEKHEKTEHTHSHHTEEAESVGSHSE
protein production: failed

MADVAVLNIDSVICVNKNNDKSTPLTQLFLVLVAAESFYPTRRFVGIRVKRRQHQHLLESLVHSTAKQQGDFTKTAELATELLCQNLAVSLVSIWIFSADQGTQSLVAQFGSMALQDTYRPSLLHTVPRYLNELKNYRHIDAGNTLIDPRLTELVDSYFIPRQILSSLDVGIRINGHLEGVLCIERAQVTHHWHDSEIHLACQMADQLALTLATKHAYDKEERLSLFRCAIEQSRQMSMLINLHTEKVEYVNQAHEDITGIARDKSIGTNLRDLTFFRQHNALAEQTLAKIFRGDQAKGEVQFSRTDGSRYWLKYIVSQFITDRGNHYALVSGEENSDEHNYKAELERLAWRCGLTGLNNRSHFNRVLERTTHGLLLLVDLVAFKRFNDTYGHENGDSLLIEVGRRLKHFSEINKATEIARVGSDEFAVLLTDDNAVYDLDYFSTRLYQHLAMPILIGREQVEPKPALAVVDIASVANLFAPLTCADIAVQYAKKKKGTAIQVFNSTLLSAFKEDAQIERDLHSAIRGRQFELYYQPLRDLEQQTYIGAEALIRWHHPKKGVLYPGAFIDIAEQSGMINAIGSWVLEAACRQLNIWQHHNADLSMHVNVSARQFFSGNLYEQVWQLLTRYRLKPKTLILEITETELMGDIRHATLLCQELAELGVGLAIDDFGTGYSSMRYLKQFPISKLKIDRSFISDLTISRESQEIVSAIIAMANALNISLTAEGVETAEQEAFLAKSLCHQAQGFLYSPALREPEFAQFLLTAKQPNLIAH
protein production: failed
